Data from paper PMC4804749.

Target: His111 (UniProt position 111, …)
Assay: NMR
Settings: 288 K

Protein: KTNMKHMAGA [Prion protein fragment PrP(106-115) (Homo sapiens)]
- pKa: ∼5
- pKa (Free peptide, no copper, 0.3 mM peptide): 6.2
